{
  "source": "patent US20150252074A1",
  "about": "“Antagonist for (Pro)Renin Receptor for the Treatment of Hypertension and Diabetes” (priority 2012, published 2015)",
  "molecules": {"B1": {"name": "mouse renin: mouse renin protein infused ICV to induce a pressor response (protein, UniProt P06281 72-402, looked up)", "Renin-1": "SPVVLTNYLNTQYYGEIGIGTPPQTFKVIFDTGSANLWVPSTKCSRLYLACGIHSLYESSDSSSYMENGSDFTIHYGSGRVKGFLSQDSVTVGGITVTQTFGEVTELPLIPFMLAKFDGVLGMGFPAQAVGGVTPVFDHILSQGVLKEEVFSVYYNRGSHLLGGEVVLGGSDPQHYQGNFHYVSISKTDSWQITMKGVSVGSSTLLCEEGCAVVVDTGSSFISAPTSSLKLIMQALGAKEKRIEEYVVNCSQVPTLPDISFDLGGRAYTLSSTDYVLQYPNRRDKLCTLALHAMDIPPPTGPVWVLGATFIRKFYTEFDRHNNRIGFALAR"}, "B2": {"name": "mouse prorenin: activating ligand of PRR, infused ICV to induce a pressor response (protein)", "chain": "LPTRTATFERIPLKKMPSVREILEERGVDMTRLSAEWGVFTKRPSLTNLTSPVVLTNYLNTQYYGEIGIGTPPQTFKVIFDTGSANLWVPSTKCSRLYLACGIHSLYESSDSSSYMENGSDFTIHYGSGRVKGFLSQDSVTVGGITVTQTFGEVTELPLIPFMLAKFDGVLGMGFPAQAVGGVTPVFDHILSQGVLKEEVFSVYYNRGSHLLGGEVVLGGSDPQHYQGNFHYVSISKTDSWQITMKGVSVGSSTLLCEEGCAVVVDTGSSFISAPTSSLKLIMQALGAKEKRIEEYVVNCSQVPTLPDISFDLGGRAYTLSSTDYVLQYPNRRDKLCTLALHAMDIPPPTGPVWVLGATFIRKFYTEFDRHNNRIGFALAR"}},
  "key": {"[1]": {"system": "Ang II type 1 receptor (AT1R)", "assay": "ICV losartan blockade of the pressor response induced by prorenin or renin", "format": "in vivo, mice", "settings": "losartan 10 ug/ul ICV at 0.3 ul/minute for 10 minutes"}, "[2]": {"target": "T1, (pro)renin receptor (PRR) (Mus musculus, UniProt Q9CYN9)", "T1 construct": "intracerebroventricular (ICV) cannula for infusion of mouse prorenin (100 ng/ul), PR10, or PR20; from tissue; host or cells: brain of conscious C57Bl/6J mice (in vivo, ICV infusion)", "T1 sequence (Q9CYN9 18-350)": "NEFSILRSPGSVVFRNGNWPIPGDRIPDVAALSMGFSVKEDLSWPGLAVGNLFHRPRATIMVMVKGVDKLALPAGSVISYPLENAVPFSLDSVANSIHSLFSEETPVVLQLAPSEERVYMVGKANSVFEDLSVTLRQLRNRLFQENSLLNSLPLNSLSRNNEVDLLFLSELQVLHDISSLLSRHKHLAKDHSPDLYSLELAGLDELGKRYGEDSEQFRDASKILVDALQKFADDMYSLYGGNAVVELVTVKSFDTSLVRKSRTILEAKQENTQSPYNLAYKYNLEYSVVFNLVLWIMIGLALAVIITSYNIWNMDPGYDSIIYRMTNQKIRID", "assay": "ICV infusion of PRR antagonist peptides against the prorenin-induced pressor response, telemetric BP recording", "format": "in vivo, C57BI/6J mice", "settings": "for effect on prorenin (ICV) induced pressor response (in words): ICV administration, C57BI/6J mice; for ΔMAP (prorenin-induced pressor response in peptide-infused mice): ICV infusion, peptide 45 ng/u1, mouse prorenin 100 ng/ul, vs. prorenin, N=5/group", "description": "C57BI/6J mice (N=5/group) were each implanted with a telemetric probe for BP recording and an intracerebroventricular (ICV) cannula for infusion of mouse prorenin (100 ng/ul), PR10, or PR20 (45 ng/u1) at 0.3 ul/minute for 10 minutes. Mouse prorenin infusion increased the BP (mmHg) in WT mice (ΔMAP: 31.3±1.1); however, the prorenin-induced pressor response was abolished in either PR10 (ΔMAP: 16.9±4.4 vs. prorenin) or PR20 (ΔMAP: 12.7±0.5 vs. prorenin) infused mice."}, "[3]": {"target": "(pro)renin receptor (PRR) in mouse brain sections (mouse) (UniProt Q9CYN9)", "sequence (Q9CYN9 18-350)": "as above", "assay": "cell-based or functional assay"}, "Nefh-PRR mice": {"system": "Nefh-PRR mice", "assay": "Pressor response to ICV infusion of mouse prorenin or mouse renin in neuron-specific PRR knockout mice (Nefh-PRR)", "format": "in vivo", "settings": "100 ng/ul at 0.3 ul/minute for 10 minutes ICV, N=5/group", "description": "(§1) FIG. 6 is a series of graphs illustrating the pressor response to intracerebroventricular (ICV) infusion of carbachol (FIG. 6A), Ang II (FIG. 6B), renin (FIG. 6C), and prorenin (FIG. 6D) in wild-type (WT) and Nefh-PRR mice. WT and Nefh-PRR mice were implanted with telemetric transmitters and ICV cannula. Two weeks after recovery, mice were ICV infused (0.3μl/min) with carbachol (100 ng/μl), Ang II (100 ng/μl), Ang II (100 ng/μl)+losartan (10 μg/μl), mouse renin (100 ng/μl), mouse prorenin (100 ng/μl), or mouse prorenin (100 ng/μl)+losartan (10 μg/μl) over 10 minutes. Blood pressure (BP) was recorded in conscious freely moving mice. *P<0.05 vs. WT.\n(§2) Neuron-specific PRR knockout mice (Nefh-PRR) and wildtype (WT) littermates (N=5/group) were each implanted with a telemetric probe for blood pressure (BP) recording and an intracerebroventricular (ICV) cannula for infusion of mouse prorenin (100 ng/ul), mouse renin (100 ng/ul), or an Ang II type 1 receptor (AT1R) blocker (losartan, 10 ug/ul) at 0.3 ul/minute for 10 minutes. Mouse prorenin infusion increased the BP (mmHg) in WT mice (ΔMAP: 41±5); however, the prorenin induced pressor response was abolished in Nefh-PRR mice (ΔMAP: 5±1)."}, "WT mice": {"system": "WT mice", "assay": "Pressor response to ICV infusion of mouse prorenin or mouse renin in wildtype (WT) mice, telemetric BP recording", "format": "in vivo", "settings": "100 ng/ul at 0.3 ul/minute for 10 minutes ICV, N=5/group", "description": "as §1, §2"}, "[4]": {"target": "T2, (pro)renin receptor (PRR) in mouse brain sections (mouse, UniProt Q9CYN9 18-350)", "T2 construct": "whole, on cells; Endogenous receptor in mouse brain tissue, not a recombinant construct", "T2 sequence (Q9CYN9 18-350)": "as above", "assay": "FITC-labelled peptide, fluorescence microscopy on mouse brain sections", "description": "In order to determine which residues of the PR20 antagonist peptide are involved in binding PRR, an alanine replacement assay was performed. A series of peptides comprising a single alanine substitution at each of the 19 amino acid positions were generated. Each of the 19 alanine substituted peptides and the PR20 peptide were labeled with FITC. Using fluorescent microscopy, each peptide was examined for binding to PRR in mouse brain sections."}},
  "note": "“Also recorded” adds a separate entry of the source. Where no end group is shown, it is not given here.",
  "data": [
    {"molecule": "CCCCc1nc(Cl)c(CO)n1Cc1ccc(-c2ccccc2-c2nn[nH]n2)cc1", "note": "[losartan]", "values": [
      {"measurement": "effect on pressor response induced by prorenin or renin (in words)", "setting": "[1]", "value": "completely blocked"}
    ]},
    {"molecule": "LPTDTTTFKRIFLKRMPSI (PRR antagonist peptide (PR20))", "values": [
      {"measurement": "effect on prorenin (ICV) induced pressor response (in words)", "setting": "[2]", "value": "abolished; also recorded: significantly reduced"},
      {"measurement": "ΔMAP (prorenin-induced pressor response in peptide-infused mice)", "setting": "[2]; 0.3 ul/minute for 10 minutes", "value": "12.7±0.5", "unit": "mmHg"}
    ]},
    {"molecule": "mouse prorenin (from UniProt P06281 22-402) (ligand)", "values": [
      {"measurement": "pressor response to ICV mouse prorenin in WT mice (ΔMAP)", "setting": "[3]", "value": 41, "unit": "mmHg"},
      {"measurement": "pressor response to ICV mouse prorenin in neuron-specific PRR knockout (Nefh-PRR) mice (ΔMAP)", "setting": "[3]", "value": 5, "unit": "mmHg"}
    ]},
    {"molecule": "IFDNIISQGVLKEDVF (PRR antagonist peptide (PR10))", "values": [
      {"measurement": "effect on prorenin (ICV) induced pressor response (in words)", "setting": "[2]", "value": "abolished; also recorded: significantly reduced"},
      {"measurement": "ΔMAP (prorenin-induced pressor response in peptide-infused mice)", "setting": "[2]; 0.3 ul/minute for 10 minutes", "value": "16.9±4.4", "unit": "mmHg"}
    ]},
    {"molecule": "B1", "values": [
      {"measurement": "ΔMAP (pressor response to ICV infusion)", "setting": "Nefh-PRR mice", "value": "27±2", "unit": "mmHg"},
      {"measurement": "ΔMAP (pressor response to ICV infusion)", "setting": "WT mice", "value": "31±5", "unit": "mmHg"}
    ]},
    {"molecule": "LPTDTTTFKRIFLKRMPSI (also: FITC label, site not given here, also called PR20 antagonist peptide)", "note": "[PR20 peptide labeled with FITC]", "values": [
      {"measurement": "binding result", "setting": "[4]", "value": "binds"}
    ]},
    {"molecule": "B2", "values": [
      {"measurement": "ΔMAP (pressor response to ICV infusion)", "setting": "Nefh-PRR mice", "value": "5±1", "unit": "mmHg"},
      {"measurement": "ΔMAP (increase of BP by mouse prorenin infusion alone)", "setting": "[2]; ICV mouse prorenin 100 ng/ul, 0.3 ul/minute for 10 minutes, WT (C57BI/6J) mice", "value": "31.3±1.1", "unit": "mmHg"},
      {"measurement": "ΔMAP (pressor response to ICV infusion)", "setting": "WT mice", "value": "41±5", "unit": "mmHg"}
    ]}
  ]
}
